According to publication PMC9475207, “Neural crest cell-placodal neuron interactions are mediated by Cadherin-7 and N-cadherin during early chick trigeminal ganglion assembly” (F1000Research, 2022):

B1: Cadherin-7 GFP1-10 (natural protein, chick, UniProt Q90763 48-785, looked up)
chain: SWVWNQFFVLEEYMGSDPLYVGKLHSDVDKGDGSIKYILSGEGASSIFIIDENTGDIHATKRLDREEQAYYTLRAQAHDRLTNKPVEPESEFVIKIQDINDNEPKFLDGPYTAGVPEMSPVGTSVVQVTATDADDPTYGNSARVVYSILQGQPYFSVEPKTGIIKTALPNMDREAKDQYLLVIQAKDMVGQNGGLSGTTSVTVTLTDVNDNPPRFPRRSYQYNVPESLPLASVVARIKAADADVGPNAEMEYKIVDGDGLGVFKISVDKDTQEGIITIQKELDFEAKTSYTLRIEAANMHVDPRFLSLGPFSDMTTVKIIVEDVDEPPVFTSRLYSMVVSEAAKVGTIIGTVAAHDPDASNSPVRYSIDRNTDLERYFNIDANSGVITTAKSLDRETNAVHNITVLAMESQNPAQIGRGYVAITILDINDNAPEFAMEYETTVCENAQPGQIIQKISAIDKDDPPNGHQFYFSLTAEAANNHNFTLQDNKDNTATVLTRRNGFRRQEQSVFYLPIFIVDSGSPSLSSTNTLTIRVCDCDADGIAQTCNAEAYILPAGLSTGALIAILACVLTLLVLVLLIVTMRRRKKEPLIFDEERDIRENIVRYDDEGGGEEDTEAFDMAALRNLNIIRDTKTRRDVTPEIQFLSRPTFKSIPDNVIFREFIWERLKEADVDPCAPPYDSLQTYAFEGNGSVAESLSSLDSISSNSDQNYDYLSDWGPRFKRLADMYGSGPDCLYS
notes: Synthesized by GenScript; also called Cad7 GFP1-10; source: CHO cells, transfected, in cells; chick embryo, electroporated in ovo into premigratory neural crest cells; not shown: split GFP subunits 1-10 (GFP1-10), N-terminal, kept
B2: Cadherin-7 GFP11 (natural protein, chick, UniProt Q90763 48-785, looked up)
chain: B1 chain
notes: Synthesized by GenScript; also called Cad7 GFP11; Cad711; source: CHO cells, transfected, in cells; chick embryo, electroporated in ovo into premigratory neural crest cells; not shown: split GFP subunit 11 (GFP11), N-terminal, kept
B3: N-cadherin GFP1-10 (natural protein, chick, UniProt P10288 165-912, looked up)
chain: DWVIPPINLPENSRGPFPQELVRIRSDRDKSLSLRYSVTGPGADQPPTGIFIINPISGQLSVTKPLDREQIASFHLRAHAVDVNGNQVENPIDIVINVIDMNDNRPEFLHQVWNGTVPEGSKPGTYVMTVTAIDADDPNAQNGMLRYRILSQAPSSPSPNMFTINNETGDIITVAAGLDREKVQQYTLIIQATDMEGNPTYGLSNTATAVITVTDVNDNPPEFTAMTFYGEVPENRVDVIVANLTVTDKDQPHTPAWNARYQMTGGDPTGQFTILTDPNSNDGLVTVVKPIDFETNRMFVLTVAAENQVPLAKGIQHPPQSTATVSITVIDVNESPYFVPNPKLVRQEEGLLAGSMLTTFTARDPDRYMQQTSLRYSKLSDPANWLKIDPVNGQITTTAVLDRESIYVQNNMYNATFLASDNGIPPMSGTGTLQIYLLDINDNAPQVNPKEATTCETLQPNAINITAVDPDIDPNAGPFAFELPDSPPSIKRNWTIVRISGDHAQLSLRIRFLEAGIYDVPIVITDSGNPHASSTSVLKVKVCQCDINGDCTDVDRIVGAGLGTGAIIAILLCIIILLILVLMFVVWMKRRDKERQAKQLLIDPEDDVRDNILKYDEEGGGEEDQDYDLSQLQQPDTVEPDAIKPVGIRRLDERPIHAEPQYPVRSAAPHPGDIGDFINEGLKAADNDPTAPPYDSLLVFDYEGSGSTAGSLSSLNSSSSGGEQDYDYLNDWGPRFKKLADMYGGGDD
notes: Synthesized by GenScript; also called N-cad GFP1-10; N-cad GFP 1-10; source: CHO cells, transfected, in cells; chick embryo, electroporated in ovo into trigeminal placode cells; not shown: split GFP subunits 1-10 (GFP1-10), N-terminal, kept

Assays:
Test in all cases: split reporter (BiFC, NanoBiT); GRASP (split GFP1-10 / GFP11 on the cadherin extracellular domain); both constructs co-transfected into CHO cells (in cis); GFP fluorescence by confocal imaging, GFP+ cells/DAPI+ cells
Settings in all cases: partners not purified
Cadherin-7 GFP11 = molecular target: B2
N-cadherin GFP11 = molecular target: T1, N-cadherin GFP11 (chick, UniProt P10288 165-912)
T1 construct: Synthesized by GenScript; also called N-cad GFP11; N-cad GFP 11; source: CHO cells, transfected, in cells; chick embryo, electroporated in ovo into trigeminal placode cells; not shown: split GFP subunit 11 (GFP11), N-terminal, kept
T1 sequence (looked up): B3 chain

N-cadherin GFP1-10 = molecular target: B3

B1
percent GFP-positive cells (GFP+ cells/DAPI+ cells) (Cadherin-7 GFP11): 10.5%
percent GFP-positive cells (GFP+ cells/DAPI+ cells) (N-cadherin GFP11): 8.9%

B2
percent GFP-positive cells (GFP+ cells/DAPI+ cells) (N-cadherin GFP1-10): 5.76%

B3
percent GFP-positive cells (GFP+ cells/DAPI+ cells) (N-cadherin GFP11): 13.2%
